The values below come from article PMC11975949 (Frontiers in Pharmacology, 2025).

The subject of one assay is GLP-1R. The note with it: various cell types; ref Jorgensen et al., 2005; Manchanda et al., 2023; cited from earlier work. The source says: For many GPCRs, homologous desensitization first requires the phosphorylation of the active state of the receptor by the G protein-coupled receptor kinase (GRK) family of kinases. This is then followed by the binding of arrestin, which sterically hinders coupling to G proteins, effectively desensitizing the receptor ([Krasel et al., 2005]). Arrestin can also act as a scaffolding protein, linking the receptor to the cellular endocytic machinery and facilitating internalization ([Ferguson, 2001]). It is now appreciated that arrestin can also act as a signaling molecule in its own right, linking ...

The subject of assay [1] is INS-1 832/3 cells. The note with it: ref Manchanda et al. (2023); cited from earlier work.
Another assay relates to subjects with T2DM. Set-up: method as in Nauck et al., 1993; Gasbjerg et al., 2020. As to conditions: pharmacological doses, ref Nauck et al., 1993, Gasbjerg et al., 2020; cited from earlier work.
In assay [2] the test system is INS-1 832/3 cells. The note with it: ref Manchanda et al. (2023); cited from earlier work. The source holds these as a separate data set.
Assay [3] deals with animal models of diabetes and obesity. As to conditions: ref McClean et al., 2007, Gault et al.; cited from earlier work. The text has this:
(§1) [Graaf et al., 2016]). Both receptors are expressed in pancreatic β-cells and other cell types, resulting in numerous pleiotropic effects of their peptide agonists. […] [Liu et al., 2022]; [Drucker and Holst, 2023]). Studies show ...

The next assay relates to GIPR. The note with it: initially considered an antagonist; ref Al-Sabah et al., 2014a; Sparre-Ulrich et al., 2016; cited from earlier work.
Source text: as §1

Assay [4] deals with NLuc-labeled chimeric receptor GIP/GLP-1R (GIPR with the C-terminal tail of GLP-1R) (human). As to the kind of experiment: FRET or BRET; BRET in HEK-293 cells co-transfected 1:1 with NLuc-labeled receptor and NES-Venus-mini-G protein; cells in HBSS, agonist (GLP-1 or GIP) for 15 min, coelenterazine h 1 μM; BRET ratio as fold-change from non-stimulated, dose-response of the agonist.

Assay [5] concerns the target NLuc-labeled human GLP-1R (human) (UniProt P43220). The description is as above.
Assay [6] addresses NLuc-labeled chimeric receptor GLP-1/GIPR (GLP-1R with the C-terminal tail of GIPR) (human). The description is as above.
In assay [7] the target is NLuc-labeled human GIPR (human) (UniProt P48546). The description is as above.
Sequence of NLuc-labeled human GIPR (human) (P48546 22-466): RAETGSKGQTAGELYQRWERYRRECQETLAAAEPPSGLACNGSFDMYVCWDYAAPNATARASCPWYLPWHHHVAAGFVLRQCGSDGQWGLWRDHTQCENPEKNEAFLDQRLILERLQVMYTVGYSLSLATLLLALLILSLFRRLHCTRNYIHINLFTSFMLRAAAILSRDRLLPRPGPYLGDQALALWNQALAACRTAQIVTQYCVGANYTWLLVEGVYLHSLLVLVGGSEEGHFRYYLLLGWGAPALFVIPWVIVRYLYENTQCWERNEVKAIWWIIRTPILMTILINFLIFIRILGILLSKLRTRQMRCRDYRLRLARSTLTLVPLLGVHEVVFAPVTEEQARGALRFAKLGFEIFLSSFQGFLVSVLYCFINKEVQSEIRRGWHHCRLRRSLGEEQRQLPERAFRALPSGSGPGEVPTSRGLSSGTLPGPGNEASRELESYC
Assay [8] concerns the target RLuc8-labeled chimeric receptor GLP-1/GIPR (GLP-1R with the C-terminal tail of GIPR) (human). The assay can be described thus: FRET or BRET; BRET in HEK-293 cells co-transfected 1:2 with RLuc8-labeled receptor and Arr3-SYFP2; cells in HBSS, agonist (GLP-1 or GIP) for 15 min, coelenterazine h 1 μM; BRET ratio as fold-change from non-stimulated, dose-response of the agonist.

The target in assay [9] is SYFP2-labeled chimeric receptor GLP-1/GIPR (GLP-1R with the C-terminal tail of GIPR) (human). The assay can be described thus: FRET or BRET; BRET in HEK-293 cells co-transfected 1:2 with SYFP2-labeled receptor and Arr3-NLuc; cells in HBSS, agonist (GLP-1 or GIP) for 15 min, coelenterazine h 1 μM; BRET ratio as fold-change from non-stimulated, dose-response of the agonist.

The conditions of assay [10]: subjects with obesity, phase 2 study, ref Véniant et al., 2024, Amgen; cited from earlier work.
Source text: as §1

Sequence of NLuc-labeled human GLP-1R (human) (P43220 24-463): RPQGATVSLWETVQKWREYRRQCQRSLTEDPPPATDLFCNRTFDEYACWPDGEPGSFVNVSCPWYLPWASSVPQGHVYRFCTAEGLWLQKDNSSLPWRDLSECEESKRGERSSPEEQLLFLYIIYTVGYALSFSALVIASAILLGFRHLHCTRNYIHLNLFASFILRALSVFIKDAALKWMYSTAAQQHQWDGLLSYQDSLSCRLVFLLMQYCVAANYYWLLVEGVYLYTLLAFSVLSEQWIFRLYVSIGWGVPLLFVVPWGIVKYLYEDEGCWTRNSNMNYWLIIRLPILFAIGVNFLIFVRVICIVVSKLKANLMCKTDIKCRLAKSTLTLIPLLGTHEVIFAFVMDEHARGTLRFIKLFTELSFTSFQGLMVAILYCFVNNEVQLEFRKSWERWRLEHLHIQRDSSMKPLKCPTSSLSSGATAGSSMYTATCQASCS

In the case of `CC[C@H](C)[C@H](NC(=O)[C@H](Cc1ccccc1)NC(=O)[C@H](CCC(=O)O)NC(=O)[C@H](CCCCN)NC(=O)[C@H](C)NC(=O)[C@H](C)NC(=O)[C@H](CCC(N)=O)NC(=O)CNC(=O)[C@H](CCC(=O)O)NC(=O)[C@H](CC(C)C)NC(=O)[C@H](Cc1ccc(O)cc1)NC(=O)[C@H](CO)NC(=O)[C@H](CO)NC(=O)[C@@H](NC(=O)[C@H](CC(=O)O)NC(=O)[C@H](CO)NC(=O)[C@@H](NC(=O)[C@H](Cc1ccccc1)NC(=O)[C@@H](NC(=O)CNC(=O)[C@H](CCC(=O)O)NC(=O)[C@H](C)NC(=O)[C@@H](N)Cc1c[nH]cn1)[C@@H](C)O)[C@@H](C)O)C(C)C)C(=O)N[C@@H](C)C(=O)N[C@@H](Cc1c[nH]c2ccccc12)C(=O)N[C@@H](CC(C)C)C(=O)N[C@H](C(=O)N[C@@H](CCCCN)C(=O)NCC(=O)N[C@@H](CCCNC(=N)N)C(N)=O)C(C)C` [GLP-1, Glucagon-like peptide-1], the “Arrestin recruitment to GLP-1R, in words” value with GLP-1R is “results in the rapid recruitment of arrestin”. In addition, in the assay on INS-1 832/3 cells [1], the “GIP- vs GLP-1-stimulated cAMP production” value is “no difference between GIP- and GLP-1-stimulated cAMP production”. In the assay on subjects with T2DM, the “Overcoming the impaired incretin effect in T2DM” value is reported as “can overcome this impairment in subjects with T2DM”. In addition, the “GIP- vs GLP-1-stimulated insulin release” value with INS-1 832/3 cells [2] was “no difference between GIP- and GLP-1-stimulated cAMP production or insulin release”.
Consider “(Pro3)GIP: an analog of GIP with a glutamic-acid-to-proline substitution at position 3 (YAPGTFISDYSIAMDKIHQQDFVNWLLAQKGKKNDWKHNITQ; Gastric inhibitory polypeptide; UniProt P09681 52-93, looked up, variant E3P)”, for which, in assay [3], the “Glucose homeostasis and weight gain” value is “improving glucose homeostasis and preventing weight gain”. For the same molecule, in the assay with GIPR, the “Agonism at GIP receptor” value is on record as “low-potency agonist”.
Regarding NES-Venus-mGαs, the pEC50 of the agonist GIP for recruitment in assay [4] and in assay [7] was 8.9 -log EC50/M in each case. Further, the pEC50 of the agonist GLP-1 for recruitment in [5] was 7.6 -log EC50/M; in assay [6], 7.5 -log EC50/M.
Turning to NES-Venus-mGαq, the pEC50 of the agonist GIP for recruitment in assay [4] is 9 -log EC50/M; in assay [7], 8.6 -log EC50/M. The pEC50 of the agonist GLP-1 for recruitment in assay [5] was 7.3 -log EC50/M; in assay [6], 7.1 -log EC50/M.
Turning to “SYFP2-labeled arrestin3 (from UniProt P32121 1-409) (natural protein)”, the pEC50 of the agonist GLP-1 for recruitment in assay [8] was 7.18 -log EC50/M.
For “NLuc-labeled arrestin3 (from UniProt P32121 1-409) (natural protein)”, in [9], the pEC50 of the agonist GLP-1 for recruitment is 7.3 -log EC50/M.
As to “Maridebart cafraglutide: fully human monoclonal anti-human GIPR antagonist antibody conjugated to two GLP-1R agonist peptides”, the Weight loss entry in [10] is “robust weight loss”.
